This passage reports Kd results from article PMC8048981 (2021).

For the assay, the target named is MDM2 (Homo sapiens, UniProt Q00987). In words: fluorescence polarization. On the technique in general: Fluorescence polarisation rises when a labelled molecule tumbles more slowly, as on binding a larger partner.

Bridge positions count the residues as written; N and C are the ends.

Chain of MDM2 (Q00987 whole entry): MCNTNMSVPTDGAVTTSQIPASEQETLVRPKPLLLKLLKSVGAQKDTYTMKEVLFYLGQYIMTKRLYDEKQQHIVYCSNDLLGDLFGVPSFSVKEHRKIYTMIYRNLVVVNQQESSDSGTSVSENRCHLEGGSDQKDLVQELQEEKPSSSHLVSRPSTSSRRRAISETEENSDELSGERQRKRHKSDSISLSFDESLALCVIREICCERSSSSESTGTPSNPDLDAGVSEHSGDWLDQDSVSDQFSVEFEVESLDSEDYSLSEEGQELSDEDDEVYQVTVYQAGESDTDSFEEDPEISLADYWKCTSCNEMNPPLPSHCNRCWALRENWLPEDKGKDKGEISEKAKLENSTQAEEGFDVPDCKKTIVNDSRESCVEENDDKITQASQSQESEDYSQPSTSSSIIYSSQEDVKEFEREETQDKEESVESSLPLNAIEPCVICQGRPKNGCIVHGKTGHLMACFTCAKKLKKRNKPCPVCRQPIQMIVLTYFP

For {5(6)‑carboxyfluorescein}-QSQQTFCNLWRLLKQN-NH2 [linear p53-derived peptide 28'], binding was put at a Kd of 346 nM.

Turning to {5(6)‑carboxyfluorescein}-QSQQTFCNLWRLLKQN-NH2 (linker 7-14 via para‑phenyl thioalkyne amide (reagent 9a)) [stapled p53-derived peptide 29a'], binding was put at a Kd of 29 nM.

By Kd is commonly meant the equilibrium constant for the complex coming apart. A lower Kd goes with a tighter complex.
